Reference: a protein production outcome set (Wang et al. 2014)

Experiment: label from the status in PepcDB records

Sequence | protein production
MPSEKEILDALSKVYSEQVIQADDYFRQAIFELASQLEKEGMSSLLATKIDSLINQYILTHQFDAPKSIFDLSRLVKTKASHYKGTAISAIMLGSFLSGGPK | not failed
KQVAEIGDRAVELVHDGSLLAPEDMGPYVAPIAFNALPFAGNLVEDGTEETDEEQKLRNESRKILGLPDLKVAGTCVRVPVFTGHTMVVHAEFNNAITPEQAREVLGNAAGVDVVDVPTPLAAAGVDNSLVGRIRQDQTVDDNKGLVFVVSGDNLRKGAALNAIQIAELLV | failed
MKGTVGELGEFGLIRELTSRLTTTPAVRVGPGDDAAVVAAPDRRVVASTDILVEGRHFRRDWSTAYDVGRKAAAQNLADIAAMGAVPTALLLGLVVPAELPVTWPTELMDGLRDECQVAGASVVGGDVVRGDTITVSITALGDLRNQEPVTRAGAQPGDLVAVTGWLGWSAAGFAVLSRGFRSPRAFVEAHRRPEPPYHAGPAAAGLGATAMCDVSDGLIADLGHIAEASKVRIDVRSGQIDIPSQMNDIGQAVGVDPMQWVLTGGEDHAIVATFPPDVKLPARWKVIGEVLNPSALPQVTVDGAPWTSKGGWDHFGGDVES | failed
MVVLKKMIGLVVVLSVLLARDNPFEPEINSKNLQGGFNGIYDSYFKEIHVDLPTSARILKQITLTYQDIDGSIHSKVVGIDKGIDWHYPLKLSQHTLDPAAFEKRYQIQDFDFLMASNTMILRSPYKILRSFVLVNPYRIVLDTQKGPLDIYQNMDLNQKFFSHIKVGTHKDYYRITLILDGKYRYLLEEKNGAYELKLK | failed
LTLDLAPVTPKDAPLLHRVFHLSPSYFALIGMELPTLEDVVRDLQTLEVDPRRRAFLLFLGQEPVGYLDAKLGYPEAEDATLSLLLIREDHQGRGLGRQALERFAAGLDGVRRLYAVVYGHNPKAKAFFQAQGFRYVK | not failed
MTTRLLQLTRPHYRLLSLPLQKPFNIKRQMSAANPSPFGNYLNTITKSLQQNLQTCFHFQAKEIDIIESPSQFYDLLKTKILNSQNRIFIASLYLGKSETELVDCISQALTKNPKLKVSFLLDGLRGTRELPSACSATLLSSLVAKYGSERVDCRLYKTPAYHGWKKVLVPKRFNEGLGLQHMKIYGFDNEVILSGANLSNDYFTNRQDRYYLFKSRNFSNYYFKLHQLISSFSYQIIKPMVDGSINIIWPDSNPTVEPTKNKRLFLREASQLLDGFLKSSKQSLPITAVGQFSTLVYPISQFTPLFPKYNDKSTEKRTILSLLSTITSNAISWTFTAGYFNILPDIKAKLLATPVAEANVITASPFANGFYQSKGVSSNLPGAYLYLSKKFLQDVCRYRQDHAITLREWQRGVVNKPNGWSYHAKGIWLSARDKNDANNWKPFITVIGSSNYTRRAYSLDLESNALIITRDEELRKKMKAELDNLLQYTKPVTLEDFQSDPERHVGTGVKIATSILGKKL | failed
MTIWLLQLVLVIALCNLCGRLAERLGQCAVVGEIAAGLLLGPSLFGVIAPSFYDLLFGPRTLSAMAQVGEVGLILLMFQIGLHMELSETLRGKRWRIPVAIAAGGLIAPAAIGMIVAIVSKDTLASDVPALPYILFCGVALAVSAVPVMARIIDDLALGAMVGARHAMSAAMLTDALGWMLLATIASLSSGPGWAFAHMLVSLLVYLVLCALLVRFVVRPVLARLASTAHATRDRLAVLLCFVIASALATSLIGFHSAFGALAAALFVRRVPGVAKEWRDNVEGFVKLVLMPVFFACAGLHASVGTIDDAASWMWCGVFLVGGFIGKFGGSYLGARGTGLAPHDAMLASSLMNTRGLMELIVLSIGLQMQILPPKVYTILVVFALVTTALTAPLVRFTLRMQTRAMSQQAA | failed
MMMYKEPFGVKVDFETGIIEGAKKSVRRLSDMEGYFVDERAWKELVEKEDPVVYEVYAVEQEEKEGDLNFSTHVIYPGKVGKEFFFAKGHFHAKLDRAQVAVALKGKGGVLMQTPEGDAKWISSEPGTVIYSPPYWAARAVNIGDEPFIMLVIYPADAGHDYGTIAEKGFSKIVIEENGEVKVVDNPRWKKGSLEHHHHHH | not failed
MAPQASTRENACRSEMLSASSRGSGWPCQENPDLSIPPLRPIALSRRNGWWSGAAAVKLASGHCTGRWKMSFWYVVDAVAVGIILPWIIATYRLLEAFKRGTGAGLTKWAIYAAVCVPAMLLVMWGIQNLR | failed
MPRVDHGSPQAGPPAPCVGILLAGGQGRRFAAASGGQDKLLARLADGTAVAVRAAAALREATDAVVAVVRPESAVLAALLRGQGCHVLESEQAREGMGASLAAAARFLLAGQVPDMPERADVCLVALADMPWVRRDTLSAVRAAACADGITVPVHQGRRGHPVAFGRSLWGELAALRGDVGARELLRRHRVAAVEVDDPGVAADVDTPGDLAGDRALEHHHHHH | failed
MTIATIDIGGTGIKFASLTPDGKILDKTSISTPENLEDLLAWLDQRLSEQDYSGIAMSVPGAVNQETGVIDGFSAVPYIHGFSWYEALSSYQLPVHLENDANCVGLSELLAHPELENAACVVIGTGIGGAMIINGRLHRGRHGLGGEFGYMTTLAPAEKLNNWSQLASTGNMVRYVIEKSGHTDWDGRKIYQEAAAGNILCQEAIERMNRNLAQGLLNIQYLIDPGVISLGGSISQNPDFIQGVKKAVEDFVDAYEEYTVAPVIQACTYHADANLYGALVNWLQEEKQW | not failed
MNQVEMTEFPVGKPEEALYGVASTPDGALWFTLAKGNAIGRLSPDGEVSRFPLPHADGQPTTITCGPDGRPWFTLSSANAVGRLSPDGALRMFELPRPASRPFGIAAGHDGCLWFAEMAGDRIGRITIDGDIEEYDLPVKGGYPSCMAAGRDGLMWFTLNQAGAIGSISATAAPRIFPLGAADAAPVGIASDAQGALWIAQAGNGAIARFDAGGRITEFPLHSRAARPHALAADAAGNLWFTEWGANRIGRISEAGDTAGYELAAPGSEPHGIAIDPHGCVWAALETGSLVRLQASPRD | failed
ANTSGKDGTTVVIGESKSDHVIHLYEDPRCPGCAAMEQSIGETVNKGMEDGDYKLSFTVGTFLDGNLGGEGSKNALSALGAALNVSPEAFVDYKTALYSTKYHPEESTDEFAKDDYLIKVADSVDALKGNKKFQDAVEKGTYDAWAMRMSKSFDKAEGVESTPTIKINDKVVETPSTPDAWQKALKDAGVTK | failed
MAKSWCTVLERPATRAARSLAIKRSEKGEMLVSGLPYLSAVDDVTLMLRDGDLMGSFVVEGINAETVDSFHTVELCNAFSRFIAQQRSDVAYYVHRISVETRPTMPPVGGHPFNEEIDRRWQGYLQTVGLRDRVTVVTLVIRPPRKTTKFLSLFGGRDVHSRHEVEARALRLDQMINTCMVGVGEAGPSRLTVSDGRWLGLLRTLIDGSGGSLIPGTKFLPVADLLASSQITFQGPVFECEGTDPARRRFGTIVSVKDYPAETYPGILDRLNLPYNTVVTQSFTPIDPISAQGKIARVRKQMRAAEDAAISLMAQLEEAEDDVASGRVIFGDHHCSVAVFCDSLKELDGAMAYVTRAMQDAGAAIVRENFSSRVVYFAQHPGNFAYRTRPAMISSQNFAQLCAMHGQSKGSPPDKCPWGDAVTIFPTARGETFRFNFHLPGKPGQRTVGHTLVLGQTGSGKTLGTAFLISQAQRLGARTILFDKDNGFEMAVRAMGGCYSAVRMGDETGFNPMRAEADSRGAAWLMDWLAALAENDGGKLNPVQIQALSDAVQANTTADPRLQNLEQFRSQLRATDDDGDLYNRLGRWDETGQFGWLFGGKGLDPLAFDNRLTAFDLTEIFDNDVVRTAWLSYVFRRVERLVEDEHPTLLVLDEAWKLLDNPYFEARLKDWMLTMRKKNVAVVLLTQRVSHIKNSAAGDAILESAVTRLVYTSSFNTAAELAPLHLTPTESAFLQMSNVDNHLVLLKSGSDSVVLDFDLVAIGKGIDVLGGGRGQKAIAGWRDRPDFQMEMLHLEHHHHHH | failed
MRTLAVISAGLSTPSSTRQIADSISEAVTAAVSARGEALSVSTIELSELIPDLMTAMTTRVHTTKLEEITSALSASDGLVVATPVFKASYTGLFKMFFDILDTDALTGMPTIIAATAGSARHSLVLDYALRPLLSYMRAVVVPTGVFAATEDFGGPEGAEFNKRIARAAGELASLIVEESGNVGLEHHHHHH | failed
MGFMIEHWDFSTPMATQETTTAEHIQPNHWYHCERLHPDIRSWLEDNHVPRATVDHLLADESRPSFHPLDDDNFMLILRGINMNENASPEDMLSIRILYFQGALISTRKIPSRAIMEIRQALAEHKGPKSLASLLNQIIEGLNGKIDLYLDTIEETLNEFDVNDESTYNHIAAQKALISIKRFIRPQQYAIRDLIESESELVTSRPHQYRFAHNNITRINETIEFYLGEVALFQDEIKHNRDEKTNKNSYLFTLVATIFLPTSFLTGLL | not failed
MVQSQSLSTLTICGSVKVSSLLRNRLNSVKASSLIGDRCVSCQFLRKSPSFRSHWKSLKQRNLLRVEARWPFQGGGEQGLDPSSERSESANEDILIFFFQLDLATRVQVKTKCRVFISFKMVANGFDVLQY | failed
MVEVTIWLAFFAGVVSFLSPCVFPLVPVYLAQLTGTQISGNEITADRKLILMRSLGFILGFTSIFIFLGASSTFIGQLFWGNRQLFEQIGGIIITVFGLQMMGVISIRMLLSEKRLQAKPRQSASFANSVLIGFLFATGWTPCIGLVLGAILVLAGDANTMWSGMSMLFVYSMGLAIPFFLVALLWSRSLHKVRKLNKWLPTIQKGSGVVMVALGVLLFTGQFSTIAAYLARINPFGI | failed
MALPASTPPRAKKRFAWIRTLRWYWWLLLFILLGYGLSHIMHWDDRGLLWLKERFESNEERSASIWLPDYHVEIDAKALPGMEKDEASDLSYNPISKTLFAVMGKNAFLVELTLKGDVLRKIPLVGWSNPEGVAVMNDGLIAITDERQHQLTIVKVTADTTTLNIADFPHYELGTSANKNKGFEGVAWDPRRQQLLLGEERPPALYTWKSDGSNVLKGDKQSLLSRALDMRNLSSLSIDPRTGHMLALSADSHMLLEVDEQGNQVSFMTLLGGMNGLKDTIPRAEGVALDEAGTLYMVSEPNLFYSFRKQ | failed
MSLEDHAEELASDLGVDKEEVTRDLENLVNYSVPMDEAKQSLRRKYGDGSSGGDSTPSSKAINEVSTEDSNVTVTAVVLTSGRRSIQYNGEQHVIREGELADETGKISYTAWDGFSGDLQPGQTVQLGNAGVREWDGQPELNLGDSTDPEVVDETLDIDYDVGGRAALQDLAPGDRGITVEVQVLECEQKVIDGRDGETTILSGVLGDESGRLPFTDWDPHDEIEEGASVRLDETFVREFRGAPSVNVSEFSAVTALDRTVGVTEDAPRLSVREAVESGGLFDVELAGNVIEVRDGSGLIERCPECGRVIQNGQCRSHGAVEGEDDLRTKAILDDGTDTVTAVLDDELTARVYGGDLDDAREHARDAMDKEVVAERISDRIVGREYVVRGSLSVDEYGANLTASTFAEADDDPATRAQALLQEADTLEHHHHHH | not failed
PECDWWALGVFAYEMFYGQTPFYADSTAETYGKIVHYKEHLSLPLVDEGVPEEARDFIQRLLCPPETRLGRGGAGDFRTHPFFFGLDWDGLRDSVPPFTPDFEGATDTCNFDLVEDGLTAMVSGGGETLSDIREGAPLGVHLPFVGYSYSCMALRDSEVPGPTPMEVEAEQLLEPHVQAPSLEPSVSPQDET | failed
MAPCAGGTCRTASERRHLQCRSRPSQGRQGGSKSAGRGFIAAEFPCLDGGEPISTARAFRDRNREFSPAMRAILDIVLIILDLYIWLLIASAILSWLIAFNVVNTRNQFVGAVSEFLYRITEPLLAPIRNLLPSLGGLDISPIILILLIMFLQRVITYYIYPAVF | failed
MAIVGTILFAFYSVAIAAAWFFFGQNQTILAIAIVGSVVLVGVQYKVGKWMALRSVGAEDMDEQEFPRIHRRVESLSRDMGIKKPTLKVANMGVPNAFAVGRKGNGTVVVSRELIDILEHEELDGVLAHELSHIANRDVVTMQLGQGIASIVGIVAQYIVLFSGDNDLADFFLAIVVGNLVQFLVTLFVLAISRYREYVADADARRAIGTGEPLARALEKISQGNEQAAQQQRQRTSRGRGRRQRGQRNDDGLDQQVSALCISSPDTSVLQKLVSTHPPTEKRIQRLRS | failed
